“Also recorded” adds a separate entry of the source.
How the values were obtained:
noggin expression = noggin expression in hMSC cells treated with BMPs and steroids (RT-PCR); type: cell-based, human; details: 72 hrs
Protocol: (§1) As immature osteoblasts differentiate and become capable of mineralization, they express markers associated with the osteoblast phenotype (type I collagen and parathyroid hormone receptor (PTHr)). These markers were used to ascertain whether differentiation had occurred so that the influence of growth factors and hormones could be correlated with the stage differentiation as well as the level of SOST expression.
(§2) Human mesenchymal cells and primary human osteoblasts were plated in regular growth media containing 2% FCS at a density of 10,000 cells 1 cm^2. Test reagents (10^−7 M dexamethasone, 10^−6 M retinoic acid, 10 ng/ml TGF-β1, PTH (10^−8 M), 10 or 50 ng/ml IGF-1, 10^−7 M1,25-dihydroxyvitamin D3, and 50 to 300 ng/ml of bone morphogenetic proteins 2, 4 or 6) were added singly or in combination on the following day.

[1] = system: alkaline phosphatase (ALP) activity in hMSC cells; test: alkaline phosphatase activity in differentiating hMSC cells; type: cell-based, human; details: sclerostin 10 μg/ml and increasing amounts of BMP-6
SOST expression = SOST expression in hMSC cells and primary human osteoblasts treated with growth factors and hormones (RT-PCR); type: cell-based; details: hMSC cells (and primary human osteoblasts), 72 hrs, RT-PCR
Protocol: as §1, §2

gremlin expression = gremlin expression in hMSC cells treated with BMPs and steroids (RT-PCR); type: cell-based, human; details: 72 hrs, RT-PCR
Protocol: as §1, §2

[2] = system: BMP-6 stimulated alkaline phosphatase activity; test: BMP-6 stimulated alkaline phosphatase activity in mouse mesenchymal C3H10T1/2 cells; type: cell-based; details: 72 hrs
Protocol: C3H10T1/2 cells (ATCC Deposit No. CCL-226) were plated in 96-well dishes at a density of 25,000 cells per well in complete growth medium (DMEM with high glucose and glutamine supplemented with 10% FCS, 1% penicillin/streptomycin, 0.1 mM non-essential amino acids, 1 mM sodium pyruvate, 55 μM β-mercaptoethanol, and 20 mM HEPES, pH 7.3). C3H10T1/2 cells were used in a short-term (72 hr) assay to determine the effects of human sclerostin protein on BMP-induced ALP activity. Partially purified preparations of bacculovirus-expressed sclerostin protein were prepared in sterile PBS using NAP-5 columns prior to use. Sclerostin protein (0 to 50 μg/ml) or an equal volume of Sf9 conditioned media (control) was pre-incubated with 500 ng/ml BMP-6 for 1 hr prior to addition to cells. For comparison, similar incubations were carried out with anti-BMP-6 antibody and noggin. Cells were harvested 72 hrs later for determination of ALP activity.
To test the specificity of the sclerostin effect, human sclerostin that was synthesized with a FLAG tag, was pre-incubated for 2 hrs at 4° C. with an anti-FLAG antibody coupled to agarose beads. The mixture was then spun down at 10,000×g for 15 minutes at 4° C. and the supernatant treated as “sclerostin protein” in the above assay.

B1: BMP-6: bone morphogenetic protein 6, purchased from R & D Systems (protein)
chain: QQSRNRSTQSQDVARVSSASDYNSSELKTACRKHELYVSFQDLGWQDWIIAPKGYAANYCDGECSFPLNAHMNATNHAIVQTLVHLMNPEYVPKPCCAPTKLNAISVLYFDDNSNVILKKYRNMVVRACGCH
B1 was tested, and the “noggin expression, factor alone” value (noggin expression) was “up-regulated”, the “reversal of the inhibitory effect of sclerostin on alkaline phosphatase” value [1] was “partially reversed” and the “SOST expression, factor alone” value (SOST expression) was “enhanced; also recorded: up-regulated”. The “gremlin expression, factor alone” value (gremlin expression) was “only modestly increased” and the “ALP activity, effect of BMP-6” value [2] was “increased in a dose-dependent manner; also recorded: stimulatory effect”.

Source: patent US7655420B2, “Methods to increase or decrease bone density” (Celltech R & D, Inc., priority 2002, dated 2010)
